According to PMC5688200, “Overexpression of the transcription factor NF-YC9 confers abscisic acid hypersensitivity in Arabidopsis”:

Legend:
NF-YC9-6His = molecular target: T1, NF-YC9-6His (Arabidopsis thaliana, UniProt Q8L4B2 1-231); assay: EMSA; 5 mM MgCl2, poly(dI-dC); NF-YC9 alone; 25 mM HEPES pH 8.0, 40 mM KCl, 5 mM MgCl2, 1 mM DTT, 1 mM EDTA, 8% glycerol, 1 ug/uL poly(dI-dC), 20 fmol probe, 30 min room temperature, 5% native PAGE; details: protein: recombinant; tags: C-terminal 6His (codons in reverse primer); label: 5' biotin; blunt
T1 sequence: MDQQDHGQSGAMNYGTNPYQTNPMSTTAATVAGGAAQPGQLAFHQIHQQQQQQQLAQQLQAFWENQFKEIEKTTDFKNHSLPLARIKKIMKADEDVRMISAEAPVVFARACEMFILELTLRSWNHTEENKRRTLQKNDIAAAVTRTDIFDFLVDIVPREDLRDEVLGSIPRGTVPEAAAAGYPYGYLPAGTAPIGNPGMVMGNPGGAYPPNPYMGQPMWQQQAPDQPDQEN

ABI5-6His = molecular target: T2, ABI5-6His (Arabidopsis thaliana, UniProt Q9SJN0 1-442); assay: EMSA; 5 mM MgCl2, poly(dI-dC); ABI5 alone, 1 ug; 25 mM HEPES pH 8.0, 40 mM KCl, 5 mM MgCl2, 1 mM DTT, 1 mM EDTA, 8% glycerol, 1 ug/uL poly(dI-dC), 20 fmol probe, 30 min room temperature, 5% native PAGE; details: protein: recombinant; tags: C-terminal 6His (codons in reverse primer); chain copies: 2; label: 5' biotin; blunt
T2 sequence: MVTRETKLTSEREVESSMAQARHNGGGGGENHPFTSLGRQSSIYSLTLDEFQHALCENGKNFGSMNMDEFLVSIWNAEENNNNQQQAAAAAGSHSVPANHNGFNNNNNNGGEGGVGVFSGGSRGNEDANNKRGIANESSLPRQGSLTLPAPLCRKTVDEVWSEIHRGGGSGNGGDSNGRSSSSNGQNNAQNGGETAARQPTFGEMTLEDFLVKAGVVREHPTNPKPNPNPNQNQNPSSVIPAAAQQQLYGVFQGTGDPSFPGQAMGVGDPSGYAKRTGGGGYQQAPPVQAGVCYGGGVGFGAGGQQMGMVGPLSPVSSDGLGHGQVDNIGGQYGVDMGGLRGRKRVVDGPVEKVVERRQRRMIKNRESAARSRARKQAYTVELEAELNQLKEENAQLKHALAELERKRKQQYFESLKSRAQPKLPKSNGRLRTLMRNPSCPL

B1: EM6 promoter probe (-277 to -220, contains pEm6.2) (dsDNA)
DNA 1: ACCACGTTCAAAGTATACGTCAGCTAATAAAGTCAGACACGTGGCATGTCACCAAGAA
DNA 2: TTCTTGGTGACATGCCACGTGTCTGACTTTATTAGCTGACGTATACTTTGAACGTGGT
B1: no binding (NF-YC9-6His); binds (ABI5-6His).
